Laboratory results published in the DeepSol protein solubility set.

Experiment: soluble on expression in E. coli; label from the status in PepcDB or PDB records

| Sequence | soluble on expression in E. coli |
| --- | --- |
| SLGELFAVFNEKLTIPEQEALMFLYAYMPTGDVTDYTGDYYLENVRLSDQARREMPWGKEIPDDVFRHFVLPIRVNNENLDDSRRVFYNELKDRVKNLSLHDAVLEVNHWCHEKVIYTPSDARTSAPLASVKTAYGRCGEESTFTVAALRSVGIPARQVYTPRWAHTDDNHAWVEAWVDGKWYFFGACEPEPVLNLGWFNAPASRGMLMHTKVFGRYTGQEEIMYETPNYTEINVIDNYAPTAKGSVLVTDAEGQPVADATVEFKVYNYAEFYTVATKHTDRSGHASLTAGKGDMLVWASKDGRFGYSKLSFGKDNELKITLDKNASETYSLPLDIVPPAEGANLPEVTPEQRTENDRRMAQEDSIRNAYVATFITEEQARTFAKENKLDETETVRLLIASRGNHQTLTDFLSDAVKADKAGQAISLLKVVSAKDLRDVSPEVLNDHLNNSGLPASEDFCSNVLNPRVANEMITPYKAFFRKEIPASEAEAFRKNPQALVEWCKKEITINNELNSQRIPMSPMGVWKARVADEKSRNIFFVSMARSLGIPAWIDEVTGKIQYRTFNDNNLKNGKVYDVDFEAAQQTQAPTGTLVARYRPIPSLSDPKYYSHFTLSKFRNGTFQLLNYDEGDVDMGGGATWSNLLKNGARLDTGYYMMVTGTRMASGAVLANVTFFTIEEGKTTTVDLVMRESKDQVQVIGNFNSESTYLPIGTSEPQSILQTCGRGYYVVAVLGAGQEPTNHALRDIAALSGEFEKWGRKMVLLFPSEEQYKKFRPSEFPGLPSTITYGIDVDGAIQKQIAESMKLPNSTILPMFIIGDTFNRVVFVSQGYTIGLGEQLMKVIHGEG | soluble |
| MGLLAHFLKGPHKKTTLLLTRAGPVENPRHVLYSHPGLPLSPKGRSALLALLPLLQGFPVAHVYAADSLAEAEAARLFAEALGVPYTLLPELRERAWGAWEGLSFPEVEARFPGAVAAWTADEAGFAPPGGESVREAWERGRRAVKALLGKHRGQAILVVGNCTLNRAALSLALPLPPEEGLRLEQDYARLSVVDFYGEEGVVKALNLAVDWGHDPARGPQGPPGAS | soluble |
| MGSDKIHHHHHHMTFDEYEVAINSEFTLQGTLTKPKAGGKYAAVIIIAGSGEIDRDGTILPLKLESNIYKDLAHVMAKLGVVTLRFDKRGVGKSDGEFLKTGMWDLVNDIESTITYLKEQPFVDPENIILAGHSEGCMLATVVNARTPVNGLILLTGAAESLEEATKRQREIAYKELKEQKGIKGKLMRLLDVEKRGEKQMEKIKEKMMNTEKDTIKVGFKPMNAKWFREHFQHDIYKDLQQVTCPVLAIAGDKDFQANPEKAKRIGDYVQGDSEVHVIKDMDHSLKSFEGDFKALEFKKNYEEGAGKPLHPMLEEIIMNWISTNFILHKIPVSTLSEYEGDGKESNCL | not soluble |
| MGSDKIHHHHHHMAFTNNVMIVRHKLLAKLVNLWKENKLTNEIDRLPIELSPRRSRPLGRCCIHKERAVYKYKLFPLLGFDMTDETDELTSLSEYARQALERKNKQKENILCVIDEACSSCVQVNYEVTNLCRGCVARSCYMNCPKDAIRFRKNGQAKIDHDACISCGKCHQSCPYHAIVFIPVPCEEACPVKAISKDENGIEHIDESKCIYCGKCLNACPFGAIFEISQAFDVLEGIRSGEKMIAIPAPSILGQFNTSIEAVYGALRQMGFADVVEVAQGAMDTVSHEAAELKEKLEEGQPFMTTSCCPSYIELVNKHIPGMKPYVSSTGSPMYYAARIAKERHPDAKIVFIGPCVAKRKEARRDECVDYILTFEEMASIFEGLDIQLEQTQPFSVLYTSVREAHGFAQAGGVMGAIKAYLGEEAKKFSAIQVSDLNKKNIGLLRAAAKTGKAQGQFIEVMACEGGCISGPSAHNDAIGGRRQLNQELIKRRESYEETHR | not soluble |
| MAHHHHHHMLMHSSTLGSVTYTGMKRRSNAASFSTYLRYSSKVVAPIVRSSPRANMGFKRFAASIAPSDLPAPSTTCISSMKRMMGVGLSRTSFKTLFRRSSNSPRYFAPAIRAPRSREKMREEERVSGTSPRTICCAMPSTMDVLPTPGSPIKTGLFFVRRDRTRMVRNTSSARPISGSSLPSSACRHMSIAYLDNAS | not soluble |
| MHHHHHHSSGVDLGTENLYFQSNAMNDPKVIVALDYDNLADALAFVDKIDPSTCRLKVGKEMFTLFGPDFVRELHKRGFSVFLDLKFHDIPNTCSKAVKAAAELGVWMVNVHASGGERMMAASREILEPYGKERPLLIGVTVLTSMESADLQGIGILSAPQDHVLRLATLTKNAGLDGVVCSAQEASLLKQHLGREFKLVTPGIRPAGSEQGDQRRIMTPAQAIASGSDYLVIGRPITQAAHPEVVLEEINSSLV | soluble |
